Experiment [1] addresses BG505 gp160 (cell surface expressed trimer) (HIV-1 (clade A BG505)). The experiment can be described thus: flow cytometry, 293F cells expressing gp160; mean of 3 experiments ± SD. In general terms: A flow cytometer gives signals particle by particle.
Experiment [2] addresses BG505 F14/Vt8 gp160 (cell surface expressed trimer) (HIV-1 (clade A BG505)). The description is as above.
Experiment [3] concerns the target BG505 DS gp160 (cell surface expressed trimer) (HIV-1 (clade A BG505)). The description is as above.
Experiment [4] has as its target BG505 F14 gp160 (cell surface expressed trimer) (HIV-1 (clade A BG505)). Described as above.
In experiment [5] the target is BG505 Vt8 gp160 (cell surface expressed trimer) (HIV-1 (clade A BG505)). The description is as above.
The target in experiment [6] is BG505 SOSIP (HIV-1 (clade A BG505)). Put plainly: BLI dose response, one site specific binding fit to the average of two experiments.
Experiment [7] has as its target BG505 F14 SOSIP (HIV-1 (clade A BG505)). The description is as above.
Experiment [8] has as its target BG505 Vt8 SOSIP (HIV-1 (clade A BG505)). The experiment is described as above.
In experiment [9] the target is BG505 F14/Vt8 SOSIP (HIV-1 (clade A BG505)). Described as above.
For another experiment, the target named is soluble CD4 (sCD4) (UniProt P01730). The experiment can be described thus: SPR, apparent affinity for sCD4. For orientation: Surface plasmon resonance follows binding to a sensor surface in real time, without labels.
The target in experiment [10] is BG505 Vt8 SOSIP (HIV-1 (clade A BG505)). Put plainly: BLI dose response, antibody captured on anti-human Fc tips, SOSIP in solution.
For experiment [11], the target named is BG505 F14/Vt8 SOSIP (HIV-1 (clade A BG505)). The experiment is described as above.
The target of experiment [12] is BG505 gp160 (cell surface expressed trimer) (HIV-1 (clade A BG505)). Put plainly: flow cytometry, 293F cells expressing gp160, antibody 10 ug/mL.
The target of experiment [13] is BG505 F14/Vt8 gp160 (cell surface expressed trimer) (HIV-1 (clade A BG505)). Described as above.
Experiment [14] deals with BG505 DS gp160 (cell surface expressed trimer) (HIV-1 (clade A BG505)). The description is as above.
Experiment [15] addresses BG505 F14 gp160 (cell surface expressed trimer) (HIV-1 (clade A BG505)). The experiment is described as above.
The target of experiment [16] is BG505 Vt8 gp160 (cell surface expressed trimer) (HIV-1 (clade A BG505)). The description is as above.

As for PGT125 (antibody), the percentage of cells binding was 47.1% in [1]; 37.9% in experiment [2]; 38.2% in experiment [3]; 54.7% in experiment [4]; 43.2% in [5].
As for PGT121 (antibody), the Kd in experiment [6] stood at 222 nM; in experiment [7] it was 219 nM; in [8], 260 nM; in [9] it was 262 nM.
Taken in the same sequence, the figures for PG9 (antibody) were 444 nM, 45.9 nM, 335 nM and 337 nM.
With PGT151 (antibody), the Kd in experiment [6] came out at 26.9 nM; in experiment [7] it was 23.3 nM; in experiment [8] it was 24 nM; in experiment [9] it was 24 nM.
Turning to CH01 (antibody), the percentage of cells binding is 32.8% in experiment [1]; 22.1% in [2]; 20.8% in experiment [3]; 37.7% in experiment [4]; 30.2% in experiment [5].
BG505 SOSIP: the Kd with soluble CD4 (sCD4) came out at 67.9 nM.
Take VRC01 (antibody): the Kd in [6] turned out to be 612 nM; in experiment [7], 566 nM; in experiment [8], 269 nM; in [9], 314 nM. For the same substance, the fold enhancement of affinity relative to BG505 SOSIP in experiment [10] and in experiment [11] was 2 fold throughout.
As for PGT145 (antibody), the Kd in [6] turned out to be 64.2 nM; in [7], 76.5 nM; in experiment [8], 68 nM; in experiment [9] it was 80.2 nM. Besides, the percentage of cells binding in experiment [1] stood at 46%; in [2] it was 34.8%; in experiment [3], 35.4%; in experiment [4] it was 48.8%; in experiment [5] it was 38.2%.
As for N6 (antibody), the percentage of cells binding in experiment [1] is 45.3%; in experiment [2] it was 40.3%; in experiment [3], 41%; in experiment [4], 53.9%; in experiment [5] it was 44.4%. For the same substance, the MFI in experiment [12] is 457 MFI; in experiment [13], 341 MFI; in experiment [14] it was 338 MFI; in experiment [15], 568 MFI; in [16], 378 MFI.
For VRC26 (antibody), the Kd in experiment [6] worked out at 67.6 nM; in experiment [7], 50.2 nM; in experiment [8], 60.4 nM; in [9], 50.6 nM.

For the origin of these results see patent US12138304.
